# Source: IntAct's records for PubMed 19581362
# B1: Chemotaxis protein CheA (Escherichia coli (strain K12)), P07363 (parent)
# chain: MSMDISDFYQTFFDEADELLADMEQHLLVLQPEAPDAEQLNAIFRAAHSIKGGAGTFGFSVLQETTHLMENLLDEARRGEMQLNTDIINLFLETKDIMQEQLDAYKQSQEPDAASFDYICQALRQLALEAKGETPSAVTRLSVVAKSEPQDEQSRSQSPRRIILSRLKAGEVDLLEEELGHLTTLTDVVKGADSLSAILPGDIAEDDITAVLCFVIEADQITFETVEVSPKISTPPVLKLAAEQAPTGRVEREKTTRSNESTSIRVAVEKVDQLINLVGELVITQSMLAQRSSELDPVNHGDLITSMGQLQRNARDLQESVMSIRMMPMEYVFSRYPRLVRDLAGKLGKQVELTLVGSSTELDKSLIERIIDPLTHLVRNSLDHGIELPEKRLAAGKNSVGNLILSAEHQGGNICIEVTDDGAGLNRERILAKAASQGLTVSENMSDDEVAMLIFAPGFSTAEQVTDVSGRGVGMDVVKRNIQKMGGHVEIQSKQGTGTTIRILLPLTLAILDGMSVRVADEVFILPLNAVMESLQPREADLHPLAGGERVLEVRGEYLPIVELWKVFNVAGAKTEATQGIVVILQSGGRRYALLVDQLIGQHQVVVKNLESNYRKVPGISAATILGDGSVALIVDVSALQAINREQRMANTAA
# partner: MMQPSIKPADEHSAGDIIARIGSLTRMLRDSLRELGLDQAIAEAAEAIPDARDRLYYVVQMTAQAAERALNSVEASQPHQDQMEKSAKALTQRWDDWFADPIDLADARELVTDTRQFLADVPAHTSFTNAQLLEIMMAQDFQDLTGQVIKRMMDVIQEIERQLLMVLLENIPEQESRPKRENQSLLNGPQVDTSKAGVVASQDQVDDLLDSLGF
# Variants of: B1
# Details: with chez_ecoli cheZ
row,effect of a mutation on the interaction,Variant
1,decreasing interaction strength,Y118C
2,decreasing interaction strength,L123C
3,decreasing interaction strength,L126C
4,decreasing interaction strength,R124C
